Measured values from PMC10882135, “Rapid reaction studies on the chemistry of flavin oxidation in urocanate reductase” (The Journal of Biological Chemistry, 2024).

Assays:
[1] = biological target: Arg411 (UniProt position 411, EELERRDVISH); experiment: kinetics (anaerobic stopped-flow spectrophotometry); conditions: 4 °C, 100 mM NaCl, 50 mM Bis-Tris propane (pH 6-9) or 50 mM CAPS (pH >9), 10% glycerol, reduced FAD (flavin hydroquinone) enzyme in complex with urocanate, folded (unfolding above pH 10.5 by CD)
[2] = biological target: T1, UrdA′ (isolated FAD domain of urocanate reductase) (Shewanella oneidensis, UniProt Q8CVD0); experiment: copurification; absorbance spectrum before and after SDS/heat release of FAD; type: binding; conditions: noncovalent; pH 7
T1 construct: N-terminal FMN domain removed), C-terminal His tag, pET29b, E. coli BL21 (DE3); noncovalent FAD
T1 sequence (Q8CVD0 130-582): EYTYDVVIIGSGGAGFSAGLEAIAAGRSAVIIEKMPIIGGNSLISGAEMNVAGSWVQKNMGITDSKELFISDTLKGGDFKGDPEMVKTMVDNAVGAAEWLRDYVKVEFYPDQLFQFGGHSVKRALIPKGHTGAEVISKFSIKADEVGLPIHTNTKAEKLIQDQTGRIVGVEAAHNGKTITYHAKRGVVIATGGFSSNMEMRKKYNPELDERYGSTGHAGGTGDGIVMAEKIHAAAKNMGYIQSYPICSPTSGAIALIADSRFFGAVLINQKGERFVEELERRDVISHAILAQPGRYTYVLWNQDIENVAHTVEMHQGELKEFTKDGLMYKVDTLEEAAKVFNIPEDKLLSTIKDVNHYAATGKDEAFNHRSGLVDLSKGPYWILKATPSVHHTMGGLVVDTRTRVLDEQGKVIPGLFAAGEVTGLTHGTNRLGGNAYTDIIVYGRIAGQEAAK

Row | Compound | pKa [1] | copurification; absorbance spectrum before and after SDS/heat release of FAD [2]
1 | Urocanate reductase, isolated FAD-binding C-terminal domain (UrdA') (Shewanella oneidensis MR-1) | 9.4 ± 0.1 | 
2 | Cc1cc2nc3c(=O)[nH]c(=O)nc-3n(C[C@H](O)[C@H](O)[C@H](O)COP(=O)(O)OP(=O)(O)OC[C@H]3O[C@@H](n4cnc5c(N)ncnc54)[C@H](O)[C@@H]3O)c2cc1C [FAD] |  | extinction coefficient of FAD bound to the variants was then calculated
